In paper doi:10.1101/2025.05.05.652248:
Read-outs that look alike come from different tables or passages of the source.

Experiments:
[1] = target: MA2561 (AmzR, Archaeal Metabolite-sensing Zipper-like Regulator) of Methanosarcina acetivorans (Methanosarcina acetivorans); experiment: non-reducing SDS-PAGE
[2] = target: MA2561 (AmzR, Archaeal Metabolite-sensing Zipper-like Regulator) of Methanosarcina acetivorans (Methanosarcina acetivorans); experiment: non-reducing SDS-PAGE; remark: listed apart in the source

stoichiometry N [1]: 2 | stoichiometry N [2]: 4
Substance: MA2561 (AmzR, Archaeal Metabolite-sensing Zipper-like Regulator) of Methanosarcina acetivorans (natural protein)
